Assay results as given in PMC10163214, “E. coli allantoinase is activated by the downstream metabolic enzyme, glycerate kinase, and stabilizes the putative allantoin transporter by direct binding” (Scientific Reports, 2023).

Key:
AllW (YbbW) = target: T1, AllW (YbbW) (Escherichia coli, UniProt P75712); assay: cellular allantoin uptake by GC-MS; assay type: cell-based; conditions: 1 mM allantoin, PBS with glucose, delta-allC cells; uptake lost in allW or allB deletion
T1 construct: native chromosomal AllW in delta-allC cells, stabilised by AllB; compared with allW and allB deletion strains; with Allantoinase
T1 sequence (P75712 whole entry): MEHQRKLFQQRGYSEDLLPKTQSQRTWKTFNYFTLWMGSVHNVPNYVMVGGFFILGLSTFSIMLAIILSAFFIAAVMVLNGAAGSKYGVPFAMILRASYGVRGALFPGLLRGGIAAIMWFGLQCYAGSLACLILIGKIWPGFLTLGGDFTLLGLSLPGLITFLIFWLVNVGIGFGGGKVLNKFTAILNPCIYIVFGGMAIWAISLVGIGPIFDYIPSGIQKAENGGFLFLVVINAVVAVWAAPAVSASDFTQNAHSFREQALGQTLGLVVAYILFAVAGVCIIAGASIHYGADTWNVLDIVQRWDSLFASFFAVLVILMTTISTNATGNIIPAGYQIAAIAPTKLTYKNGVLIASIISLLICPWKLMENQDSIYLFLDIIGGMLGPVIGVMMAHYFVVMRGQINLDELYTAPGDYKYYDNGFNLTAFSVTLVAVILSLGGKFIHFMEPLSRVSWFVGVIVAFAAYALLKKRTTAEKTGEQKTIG

[1] = target: T2, AllB (allantoinase; AllB_Zn, AllB_Mn) (Escherichia coli, UniProt P77671); assay: absorbance of allantoate at […] nm; assay type: biochemical; conditions: 0.1 mM ZnSO4, no GlxK, no glyoxylate, pH 8.0
T2 construct: full length; expressed in E. coli; tetrameric
T2 sequence (P77671 1-453): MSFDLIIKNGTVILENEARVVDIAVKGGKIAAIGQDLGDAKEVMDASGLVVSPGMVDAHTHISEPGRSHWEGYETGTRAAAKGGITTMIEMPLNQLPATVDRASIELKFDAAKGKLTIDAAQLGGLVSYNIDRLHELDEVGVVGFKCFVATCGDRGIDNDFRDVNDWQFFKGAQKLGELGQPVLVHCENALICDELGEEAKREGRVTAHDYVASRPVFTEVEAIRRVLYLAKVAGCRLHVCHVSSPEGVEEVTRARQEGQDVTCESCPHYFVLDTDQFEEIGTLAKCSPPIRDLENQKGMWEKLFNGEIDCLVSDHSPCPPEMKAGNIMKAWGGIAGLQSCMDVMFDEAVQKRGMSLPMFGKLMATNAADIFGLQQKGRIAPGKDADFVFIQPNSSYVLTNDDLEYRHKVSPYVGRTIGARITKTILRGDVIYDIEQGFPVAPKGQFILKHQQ

purified protein [2] = substrate: NC(=O)NC1NC(=O)NC1=O; assay: purified protein; assay type: biochemical, Escherichia coli; conditions: AllB_Mn, 0.2 mM MnSO4, no GlxK, 0.9 mM glyoxylate present, pH 8.0, 37 °C
purified protein [3] = substrate: O=C(O)[C@H](O)CO; assay: purified protein; assay type: biochemical, Escherichia coli; conditions: 10 mM MgSO4, 1.2 mM ATP, pH 7.4, 37 °C

## NC(=O)NC1NC(=O)NC1=O (stereo not drawn) [allantoin]
AllW (YbbW)
  cellular allantoin uptake by GC-MS: no allantoin uptake was detected in either the AW12 (ΔallC–ΔallB) or the AW13 (ΔallC–ΔallW) mutant
[1]
  Km: > 15 mM

B1: AllB (allantoinase; AllB_Zn, AllB_Mn) (Escherichia coli K-12) (protein)
chain: MSFDLIIKNGTVILENEARVVDIAVKGGKIAAIGQDLGDAKEVMDASGLVVSPGMVDAHTHISEPGRSHWEGYETGTRAAAKGGITTMIEMPLNQLPATVDRASIELKFDAAKGKLTIDAAQLGGLVSYNIDRLHELDEVGVVGFKCFVATCGDRGIDNDFRDVNDWQFFKGAQKLGELGQPVLVHCENALICDELGEEAKREGRVTAHDYVASRPVFTEVEAIRRVLYLAKVAGCRLHVCHVSSPEGVEEVTRARQEGQDVTCESCPHYFVLDTDQFEEIGTLAKCSPPIRDLENQKGMWEKLFNGEIDCLVSDHSPCPPEMKAGNIMKAWGGIAGLQSCMDVMFDEAVQKRGMSLPMFGKLMATNAADIFGLQQKGRIAPGKDADFVFIQPNSSYVLTNDDLEYRHKVSPYVGRTIGARITKTILRGDVIYDIEQGFPVAPKGQFILKHQQ
notes: full length; expressed in E. coli; tetrameric
Purified protein [2]
  Km: 5.8 ± 1.2 mM
  Vmax: 246 ± 32 U/mg protein

B2: GlxK (glycerate 2-kinase) (Escherichia coli K-12) (protein)
chain: MKIVIAPDSFKESLSAEKCCQAIKAGFSTLFPDANYICLPIADGGEGTVDAMVAATGGNIVTLEVCGPMGEKVNAFYGLTGDGKTAVIEMAAASGLMLVAPEKRNPLLASSFGTGELIRHALDNDIRHIILGIGGSATVDGGMGMAQALGVRFLDADGQALAANGGNLARVASIEMDECDPRLANCHIEVACDVDNPLVGARGAAAVFGPQKGATPEMVEELEQGLQNYARVLQQQTEINVCQMAGGGAAGGMGIAAAVFLNADIKPGIEIVLNAVNLAQAVQGAALVITGEGRIDSQTAGGKAPLGVASVAKQFNVPVIGIAGVLGDGVEVVHQYGIDAVFSILPRLAPLAEVLASGETNLFNSARNIACAIKIGQGIKN
notes: full length, N-terminal His6 tag, expressed in E. coli; GlxK-His 41 kDa
Purified protein [3]
  Km: 0.085 ± 0.009 mM
  Vmax: 4.6 ± 0.3 U/mg protein
